Assay results reported in the supplement of paper PMC9112550, “Optimization of the antimicrobial peptide Bac7 by deep mutational scanning” (BMC Biology, 2022).

Tested on: Escherichia coli TOP10
Experiment: shrunken log2 fold change of peptide-encoding DNA abundance (4.5 h post-induction vs induction); higher = less antimicrobial activity (less host growth inhibition)
Settings: time post-induction: 4.5 h; library: site-saturation at positions 5, 18, 19, 20
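Note: peptides expressed intracellularly from a pBAD plasmid library in pooled LB shake-flask culture, induced with 0.3% L-arabinose, DNA abundance read by NGS, three biological replicates, DESeq2 with apeglm shrinkage.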

Row | Sequence | shrunken log2 fold change
1 | RRIRLRPPRLPRPRPRPFADPRP | 0.0979
2 | RRIRQRPPRLPRPRPRPEQRPRP | 0.0426
3 | RRIRVRPPRLPRPRPRPDWVPRP | -0.0925
4 | RRIRMRPPRLPRPRPRPMGHPRP | -0.032
5 | RRIRNRPPRLPRPRPRPGIRPRP | 0.0989
6 | RRIRGRPPRLPRPRPRPWAEPRP | 2.19
7 | RRIRNRPPRLPRPRPRPPGWPRP | 1.24
8 | RRIRWRPPRLPRPRPRPLACPRP | 0.206
9 | RRIRKRPPRLPRPRPRPLCSPRP | 0.0457
10 | RRIRYRPPRLPRPRPRPSNMPRP | -1.1
11 | RRIRNRPPRLPRPRPRPTPLPRP | 0.268
12 | RRIRSRPPRLPRPRPRPMTTPRP | 0.572
13 | RRIRHRPPRLPRPRPRPVAIPRP | 2.06
14 | RRIRIRPPRLPRPRPRPCGNPRP | 0.00902
15 | RRIRFRPPRLPRPRPRPSTTPRP | -0.362
16 | RRIRHRPPRLPRPRPRPSLTPRP | 0.0616
17 | RRIRSRPPRLPRPRPRPATFPRP | -0.366
18 | RRIRMRPPRLPRPRPRPFTGPRP | 0.0078
19 | RRIRARPPRLPRPRPRPRLKPRP | 0.547
20 | RRIRTRPPRLPRPRPRPTCGPRP | -0.0204
21 | RRIRKRPPRLPRPRPRPNKYPRP | -0.168
22 | RRIRLRPPRLPRPRPRPTGRPRP | 0.105
23 | RRIRYRPPRLPRPRPRPYGSPRP | -0.843
24 | RRIRYRPPRLPRPRPRPCMVPRP | -0.251
25 | RRIRRRPPRLPRPRPRPVINPRP | -0.0966

Row | Sequence | shrunken log2 fold change
26 | RRIRNRPPRLPRPRPRPYFSPRP | -0.225
27 | RRIRLRPPRLPRPRPRPAWLPRP | 0.229
28 | RRIRHRPPRLPRPRPRPMYYPRP | -0.681
29 | RRIRIRPPRLPRPRPRPFCRPRP | 0.087
30 | RRIRIRPPRLPRPRPRPTTAPRP | -0.00422
31 | RRIRGRPPRLPRPRPRPHNEPRP | 0.264
32 | RRIRKRPPRLPRPRPRPELDPRP | 0.121
33 | RRIRMRPPRLPRPRPRPEYPPRP | 0.0399
34 | RRIRWRPPRLPRPRPRPGQDPRP | 0.334
35 | RRIRMRPPRLPRPRPRPWEFPRP | 0.0443
36 | RRIRQRPPRLPRPRPRPTICPRP | -0.114
37 | RRIRLRPPRLPRPRPRPNFNPRP | 0.597
38 | RRIRTRPPRLPRPRPRPEWYPRP | 0.135
39 | RRIRDRPPRLPRPRPRPQGVPRP | 0.0763
40 | RRIRTRPPRLPRPRPRPDFYPRP | -0.241
41 | RRIRSRPPRLPRPRPRPRLYPRP | 0.114
42 | RRIRSRPPRLPRPRPRPDSFPRP | -0.0457
43 | RRIRKRPPRLPRPRPRPPCEPRP | 0.509
44 | RRIRWRPPRLPRPRPRPCCVPRP | -0.134
45 | RRIRYRPPRLPRPRPRPGHFPRP | -0.0316
46 | RRIRARPPRLPRPRPRPQLGPRP | -0.0732
47 | RRIRRRPPRLPRPRPRPVQSPRP | 0.0557
48 | RRIRSRPPRLPRPRPRPLCWPRP | 0.131
49 | RRIRYRPPRLPRPRPRPRMWPRP | 0.0356
50 | RRIRARPPRLPRPRPRPRYYPRP | -0.116

Row | Sequence | shrunken log2 fold change
51 | RRIRHRPPRLPRPRPRPVGWPRP | 0.535
52 | RRIRERPPRLPRPRPRPIYPPRP | -0.0605
53 | RRIRIRPPRLPRPRPRPTFVPRP | -0.582
54 | RRIRVRPPRLPRPRPRPTIAPRP | 0.335
55 | RRIRARPPRLPRPRPRPLNSPRP | 0.0404
56 | RRIRIRPPRLPRPRPRPGCAPRP | 0.185
57 | RRIRCRPPRLPRPRPRPRPNPRP | 0.478
58 | RRIRQRPPRLPRPRPRPQDRPRP | -0.254
59 | RRIRGRPPRLPRPRPRPVYAPRP | 0.0566
60 | RRIRNRPPRLPRPRPRPTLGPRP | 0.3
61 | RRIRHRPPRLPRPRPRPAKAPRP | 0.0344
62 | RRIRRRPPRLPRPRPRPLMKPRP | -0.12
63 | RRIRVRPPRLPRPRPRPCLEPRP | 0.0452
64 | RRIRIRPPRLPRPRPRPAKSPRP | -0.0109
65 | RRIRFRPPRLPRPRPRPVPKPRP | -0.208
66 | RRIRGRPPRLPRPRPRPMKRPRP | 0.343
67 | RRIRMRPPRLPRPRPRPPNWPRP | 1.03
68 | RRIRNRPPRLPRPRPRPHIGPRP | -0.0161
69 | RRIRCRPPRLPRPRPRPYEAPRP | -0.511
70 | RRIRKRPPRLPRPRPRPWSYPRP | -0.528
71 | RRIRQRPPRLPRPRPRPTYHPRP | -0.184
72 | RRIRNRPPRLPRPRPRPVLIPRP | -0.27
73 | RRIRERPPRLPRPRPRPDLWPRP | -0.141
74 | RRIRQRPPRLPRPRPRPVSEPRP | -0.202
75 | RRIRVRPPRLPRPRPRPSPQPRP | 0.0525

Row | Sequence | shrunken log2 fold change
76 | RRIRLRPPRLPRPRPRPRNHPRP | -0.44
77 | RRIRWRPPRLPRPRPRPAKCPRP | -0.0704
78 | RRIRVRPPRLPRPRPRPFTIPRP | -0.085
79 | RRIRFRPPRLPRPRPRPAQHPRP | 0.265
80 | RRIRYRPPRLPRPRPRPYWRPRP | 0.0608
81 | RRIRTRPPRLPRPRPRPFQFPRP | -0.131
82 | RRIRERPPRLPRPRPRPTAWPRP | 0.378
83 | RRIRVRPPRLPRPRPRPKRPPRP | 0.32
84 | RRIRRRPPRLPRPRPRPICTPRP | 0.391
85 | RRIRTRPPRLPRPRPRPVQWPRP | 0.116
86 | RRIRRRPPRLPRPRPRPDCWPRP | 0.676
87 | RRIRTRPPRLPRPRPRPCIVPRP | -0.164
88 | RRIRSRPPRLPRPRPRPRWFPRP | 0.0783
89 | RRIRQRPPRLPRPRPRPSYAPRP | 0.0242
90 | RRIRYRPPRLPRPRPRPESFPRP | -0.0275
91 | RRIRARPPRLPRPRPRPATKPRP | 0.531
92 | RRIRDRPPRLPRPRPRPTPWPRP | 0.66
93 | RRIRPRPPRLPRPRPRPCIYPRP | -0.536
94 | RRIRERPPRLPRPRPRPCNWPRP | -0.0685
95 | RRIRFRPPRLPRPRPRPFCMPRP | -0.62
96 | RRIRVRPPRLPRPRPRPHHDPRP | -0.37
97 | RRIRVRPPRLPRPRPRPTDYPRP | -0.479
98 | RRIRQRPPRLPRPRPRPSIHPRP | -0.451
99 | RRIRGRPPRLPRPRPRPREVPRP | 1.05
100 | RRIRNRPPRLPRPRPRPDEQPRP | -0.0726

Row | Sequence | shrunken log2 fold change
101 | RRIRFRPPRLPRPRPRPLHDPRP | -0.107
102 | RRIRYRPPRLPRPRPRPGIMPRP | 0.0185
103 | RRIRFRPPRLPRPRPRPHENPRP | 0.0161
104 | RRIRIRPPRLPRPRPRPDWGPRP | -0.0242
105 | RRIRERPPRLPRPRPRPYQDPRP | -0.0275
106 | RRIRKRPPRLPRPRPRPMCWPRP | 0.0564
107 | RRIRERPPRLPRPRPRPNGEPRP | -0.0424
108 | RRIRSRPPRLPRPRPRPGPPPRP | 0.46
109 | RRIRYRPPRLPRPRPRPFSGPRP | 0.0211
110 | RRIRCRPPRLPRPRPRPQTFPRP | -0.139
111 | RRIRPRPPRLPRPRPRPCFVPRP | -0.18
112 | RRIRMRPPRLPRPRPRPGLIPRP | 0.133
113 | RRIRGRPPRLPRPRPRPWSMPRP | 0.0583
114 | RRIRHRPPRLPRPRPRPGAEPRP | 0.13
115 | RRIRNRPPRLPRPRPRPGACPRP | 0.0367
116 | RRIRRRPPRLPRPRPRPTPKPRP | 1.24
117 | RRIRWRPPRLPRPRPRPHTDPRP | -0.283
118 | RRIRWRPPRLPRPRPRPHVGPRP | 0.0547
119 | RRIRIRPPRLPRPRPRPKQFPRP | -0.328
120 | RRIRYRPPRLPRPRPRPNEAPRP | -0.017
121 | RRIRLRPPRLPRPRPRPECHPRP | 0.0679
122 | RRIRVRPPRLPRPRPRPSFHPRP | -0.439
123 | RRIRDRPPRLPRPRPRPSHFPRP | -0.0338
124 | RRIRTRPPRLPRPRPRPSWKPRP | -0.124
125 | RRIRQRPPRLPRPRPRPCYMPRP | -0.832

Row | Sequence | shrunken log2 fold change
126 | RRIRIRPPRLPRPRPRPDKYPRP | -0.189
127 | RRIRVRPPRLPRPRPRPFNNPRP | -0.147
128 | RRIRARPPRLPRPRPRPYTAPRP | -0.0946
129 | RRIRYRPPRLPRPRPRPRRVPRP | 0.00201
130 | RRIRFRPPRLPRPRPRPHWWPRP | 0.154
131 | RRIRQRPPRLPRPRPRPCSQPRP | -0.018
132 | RRIRMRPPRLPRPRPRPDIYPRP | 0.0832
133 | RRIRLRPPRLPRPRPRPHYLPRP | -0.278
134 | RRIRFRPPRLPRPRPRPCWTPRP | -0.323
135 | RRIRLRPPRLPRPRPRPQKLPRP | -0.17
136 | RRIRGRPPRLPRPRPRPTWGPRP | 0.469
137 | RRIRKRPPRLPRPRPRPTEYPRP | 0.0661
138 | RRIRRRPPRLPRPRPRPSGWPRP | 0.333
139 | RRIRNRPPRLPRPRPRPQEQPRP | 0.042
140 | RRIRTRPPRLPRPRPRPGRKPRP | 0.282
141 | RRIRARPPRLPRPRPRPRMSPRP | -0.186
142 | RRIRSRPPRLPRPRPRPTPFPRP | -0.0055
143 | RRIRARPPRLPRPRPRPQVCPRP | 0.0435
144 | RRIRPRPPRLPRPRPRPIWKPRP | 0.0296
145 | RRIRSRPPRLPRPRPRPRNAPRP | 0.374
146 | RRIRTRPPRLPRPRPRPNGLPRP | -0.00146
147 | RRIRPRPPRLPRPRPRPDDSPRP | 0.0427
148 | RRIRNRPPRLPRPRPRPAGNPRP | 0.0404
149 | RRIRLRPPRLPRPRPRPSFWPRP | 0.0795
150 | RRIRERPPRLPRPRPRPGLPPRP | -0.112
